Results as given in the Human Domainome abundance scans (Beltran et al. 2025).
± gives the uncertainty stated by the source.

B1: E3 ubiquitin-protein ligase Midline-1, residues 172 to 214; numbered along this chain, O15344 (parent)
chain: GLMCLEHEDEKVNMYCVTDDQLICALCKLVGRHRDHQVAALSE

Variants of: B1
Experiment: abundance fitness (aPCA) (normalised: wild type 0, dead -1); higher = more abundant; growth selection in yeast, the domain comes from the species named
Conditions: Homo sapiens

| Variant | abundance fitness |
| --- | --- |
| GLMCEEHEDEKVNMYCVTDDQLICALCKLVGRHRDHQVAALSE [L5E] | 0.074 ± 0.066 |
| GLMCFEHEDEKVNMYCVTDDQLICALCKLVGRHRDHQVAALSE [L5F] | -0.13 ± 0.3 |
| GLMCGEHEDEKVNMYCVTDDQLICALCKLVGRHRDHQVAALSE [L5G] | -0.092 ± 0.062 |
| GLMCHEHEDEKVNMYCVTDDQLICALCKLVGRHRDHQVAALSE [L5H] | -0.037 ± 0.11 |
| GLMCIEHEDEKVNMYCVTDDQLICALCKLVGRHRDHQVAALSE [L5I] | -0.435 ± 0.41 |
| GLMCKEHEDEKVNMYCVTDDQLICALCKLVGRHRDHQVAALSE [L5K] | 0.142 ± 0.085 |
| GLMCNEHEDEKVNMYCVTDDQLICALCKLVGRHRDHQVAALSE [L5N] | -0.124 ± 0.19 |
| GLMCPEHEDEKVNMYCVTDDQLICALCKLVGRHRDHQVAALSE [L5P] | 0.058 ± 0.069 |
| GLMCQEHEDEKVNMYCVTDDQLICALCKLVGRHRDHQVAALSE [L5Q] | -0.155 ± 0.11 |
| GLMCREHEDEKVNMYCVTDDQLICALCKLVGRHRDHQVAALSE [L5R] | -0.062 ± 0.054 |
| GLMCSEHEDEKVNMYCVTDDQLICALCKLVGRHRDHQVAALSE [L5S] | -0.012 ± 0.073 |
| GLMCTEHEDEKVNMYCVTDDQLICALCKLVGRHRDHQVAALSE [L5T] | -0.039 ± 0.12 |
| GLMCVEHEDEKVNMYCVTDDQLICALCKLVGRHRDHQVAALSE [L5V] | -0.165 ± 0.064 |
| GLMCWEHEDEKVNMYCVTDDQLICALCKLVGRHRDHQVAALSE [L5W] | -0.482 ± 0.1 |
| GLMCYEHEDEKVNMYCVTDDQLICALCKLVGRHRDHQVAALSE [L5Y] | -0.021 ± 0.16 |
| GLMCLAHEDEKVNMYCVTDDQLICALCKLVGRHRDHQVAALSE [E6A] | -0.085 ± 0.075 |
| GLMCLCHEDEKVNMYCVTDDQLICALCKLVGRHRDHQVAALSE [E6C] | -0.447 ± 0.17 |
| GLMCLDHEDEKVNMYCVTDDQLICALCKLVGRHRDHQVAALSE [E6D] | -0.132 ± 0.19 |
| GLMCLFHEDEKVNMYCVTDDQLICALCKLVGRHRDHQVAALSE [E6F] | 0.023 ± 0.11 |
| GLMCLGHEDEKVNMYCVTDDQLICALCKLVGRHRDHQVAALSE [E6G] | -0.438 ± 0.055 |

| Variant | abundance fitness |
| --- | --- |
| GLMCLHHEDEKVNMYCVTDDQLICALCKLVGRHRDHQVAALSE [E6H] | 0.063 ± 0.21 |
| GLMCLIHEDEKVNMYCVTDDQLICALCKLVGRHRDHQVAALSE [E6I] | 0.126 ± 0.095 |
| GLMCLKHEDEKVNMYCVTDDQLICALCKLVGRHRDHQVAALSE [E6K] | -0.206 ± 0.066 |
| GLMCLLHEDEKVNMYCVTDDQLICALCKLVGRHRDHQVAALSE [E6L] | -0.14 ± 0.063 |
| GLMCLNHEDEKVNMYCVTDDQLICALCKLVGRHRDHQVAALSE [E6N] | -0.226 ± 0.18 |
| GLMCLPHEDEKVNMYCVTDDQLICALCKLVGRHRDHQVAALSE [E6P] | -0.843 ± 0.17 |
| GLMCLQHEDEKVNMYCVTDDQLICALCKLVGRHRDHQVAALSE [E6Q] | -0.036 ± 0.09 |
| GLMCLRHEDEKVNMYCVTDDQLICALCKLVGRHRDHQVAALSE [E6R] | -0.297 ± 0.054 |
| GLMCLSHEDEKVNMYCVTDDQLICALCKLVGRHRDHQVAALSE [E6S] | 0.039 ± 0.064 |
| GLMCLTHEDEKVNMYCVTDDQLICALCKLVGRHRDHQVAALSE [E6T] | 0.001 ± 0.15 |
| GLMCLVHEDEKVNMYCVTDDQLICALCKLVGRHRDHQVAALSE [E6V] | -0.183 ± 0.059 |
| GLMCLWHEDEKVNMYCVTDDQLICALCKLVGRHRDHQVAALSE [E6W] | -0.374 ± 0.083 |
| GLMCLYHEDEKVNMYCVTDDQLICALCKLVGRHRDHQVAALSE [E6Y] | -0.276 ± 0.085 |
| GLMCLEAEDEKVNMYCVTDDQLICALCKLVGRHRDHQVAALSE [H7A] | -0.703 ± 0.083 |
| GLMCLECEDEKVNMYCVTDDQLICALCKLVGRHRDHQVAALSE [H7C] | -0.466 ± 0.14 |
| GLMCLEEEDEKVNMYCVTDDQLICALCKLVGRHRDHQVAALSE [H7E] | -0.433 ± 0.081 |
| GLMCLEGEDEKVNMYCVTDDQLICALCKLVGRHRDHQVAALSE [H7G] | -0.5 ± 0.057 |
| GLMCLEKEDEKVNMYCVTDDQLICALCKLVGRHRDHQVAALSE [H7K] | -0.604 ± 0.12 |
| GLMCLELEDEKVNMYCVTDDQLICALCKLVGRHRDHQVAALSE [H7L] | -1.03 ± 0.14 |
| GLMCLEMEDEKVNMYCVTDDQLICALCKLVGRHRDHQVAALSE [H7M] | -0.66 ± 0.12 |

| Variant | abundance fitness |
| --- | --- |
| GLMCLEQEDEKVNMYCVTDDQLICALCKLVGRHRDHQVAALSE [H7Q] | -0.551 ± 0.12 |
| GLMCLEREDEKVNMYCVTDDQLICALCKLVGRHRDHQVAALSE [H7R] | -0.646 ± 0.07 |
| GLMCLESEDEKVNMYCVTDDQLICALCKLVGRHRDHQVAALSE [H7S] | -0.765 ± 0.11 |
| GLMCLETEDEKVNMYCVTDDQLICALCKLVGRHRDHQVAALSE [H7T] | -0.492 ± 0.15 |
| GLMCLEVEDEKVNMYCVTDDQLICALCKLVGRHRDHQVAALSE [H7V] | -1.34 ± 0.18 |
| GLMCLEWEDEKVNMYCVTDDQLICALCKLVGRHRDHQVAALSE [H7W] | -0.89 ± 0.13 |
| GLMCLEYEDEKVNMYCVTDDQLICALCKLVGRHRDHQVAALSE [H7Y] | -0.637 ± 0.13 |
| GLMCLEHADEKVNMYCVTDDQLICALCKLVGRHRDHQVAALSE [E8A] | 0.179 ± 0.054 |
| GLMCLEHCDEKVNMYCVTDDQLICALCKLVGRHRDHQVAALSE [E8C] | 0.16 ± 0.066 |
| GLMCLEHDDEKVNMYCVTDDQLICALCKLVGRHRDHQVAALSE [E8D] | -0.165 ± 0.09 |
| GLMCLEHFDEKVNMYCVTDDQLICALCKLVGRHRDHQVAALSE [E8F] | -0.144 ± 0.17 |
| GLMCLEHHDEKVNMYCVTDDQLICALCKLVGRHRDHQVAALSE [E8H] | 0.056 ± 0.13 |
| GLMCLEHIDEKVNMYCVTDDQLICALCKLVGRHRDHQVAALSE [E8I] | -0.139 ± 0.16 |
| GLMCLEHKDEKVNMYCVTDDQLICALCKLVGRHRDHQVAALSE [E8K] | 0.221 ± 0.074 |
| GLMCLEHLDEKVNMYCVTDDQLICALCKLVGRHRDHQVAALSE [E8L] | 0.108 ± 0.069 |
| GLMCLEHNDEKVNMYCVTDDQLICALCKLVGRHRDHQVAALSE [E8N] | -0.137 ± 0.11 |
| GLMCLEHPDEKVNMYCVTDDQLICALCKLVGRHRDHQVAALSE [E8P] | 0.186 ± 0.081 |
| GLMCLEHQDEKVNMYCVTDDQLICALCKLVGRHRDHQVAALSE [E8Q] | 0.051 ± 0.074 |
| GLMCLEHRDEKVNMYCVTDDQLICALCKLVGRHRDHQVAALSE [E8R] | 0.116 ± 0.045 |
